# In patent publication US20230242902A1, “A HIGHLY ERROR-PRONE […] R[…] FOR TARGETED CONTINUOUS EVOLUTION IN VIVO” (The Regents of the University of California, priority 2017, published 2023):
# Tested on: p1-encoded leu2 (Q180*)
# Assay: Large-scale p1 fluctuation tests of p1-encoded leu2 (Q180*), per-base substitution rate
# Format: cell-based, S. cerevisiae
# Details: per-base substitution rate, p1-encoded leu2 (Q180*), large-scale fluctuation test
# How it was run: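 Yeast OR-Y24 carrying p1-encoded leu2 (Q180*) with individual TP-DNAP1 variants; 36-48 replicates (3-16 for highly error-prone variants), LEU2 revertants scored without leucine. Rates by maximum likelihood, normalized to cells per culture, p1 copy number (flow cytometry) and 2.33 reversion routes.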
row,Molecule,Mutation rate (s.p.b.)
1,"I777K, F871Y (protein) MDYKDKALNDLRNVYADFDSLPLDFRQILIKDRATLLQKEDVEKKILERQEDAKKYAEYLKQSEIPERISLPNIKRHKGVSISFEETSEDMVLEPRPFIFDGLNIRCFRRETIFSLKNKILNMVKESSSFKNVSRQSVSFMYFKIFNKGKVIASTKSVNIYEDKIDERLEDLCNNFDDVLKKIIDVTYGYESLFVSETYSYVIFYAKSIYFPQPRCVNNWGNNIPNILTFDSFKLFTANKNNVSCIKQCSRFLWQKDFNTLEEMIEYKNGNICIVTPQLHINDVRDIKSFNDIRLYSESPIKTFSVIDNTITYLFYFKEHLGVIFNITKSRHDRRVTKFSPLSKFSDVKNITVCFDIESYFDPEKESNQVNIPFICCASIIYNKVIGNIVDFEGRDCVAQMIEYVVDICGELNISSVELIAHNGGGYDFHYILSSMYNPAAIKNILIRNNSFISFNFAHDGVKFSVKDSYSFLLCSLANASKAFLNEETFKKTDFPHHDLKTADDLYKVYKEWSSVNTEINHVVEKEKLLITSEHIVNFTKNDKSKTLIEWSKDYCRNDVLVLSKVWLEFKNAVEDIFNCELVDQTMTLAGLSYKLFQANMPFDVELRHPNKEDYFNMREALIGGRCISVNGIYKDVLCLDVKSLYPASMAFYDQPYGSFKRVSSRPKDELGIYYVRVTPNRNNKSNFFPIRSHNKITYNNFEESTYIAWYTNVDIDIGLSEGHNIEYIPFDSYGNIGYSWSKKGKIFEKYIKDVLYKLKIKYEKQNNKVKRNVIKKIMNSLWGKFAQKWVNFEYFIKSEDDIDFESEEAYKIWDTDFMLIKKIKESTYSSKPIQNGVFTLSWARYHMKSIWDAGAKEGAECIYSDTDSIYVHKEHFKKNAKFMLNGLKVPIIGSEVGQLELECEFDKLLCAGKKQYMGFYTYFQDGKPCIKEKKRFKGIPSNYIIPELYAHLLSGADKEAKIQFLKFRREWGSVKGYIENKTVKAT",1.35 × 10^−6 s.p.b.
2,"I777K, F968C (protein) MDYKDKALNDLRNVYADFDSLPLDFRQILIKDRATLLQKEDVEKKILERQEDAKKYAEYLKQSEIPERISLPNIKRHKGVSISFEETSEDMVLEPRPFIFDGLNIRCFRRETIFSLKNKILNMVKESSSFKNVSRQSVSFMYFKIFNKGKVIASTKSVNIYEDKIDERLEDLCNNFDDVLKKIIDVTYGYESLFVSETYSYVIFYAKSIYFPQPRCVNNWGNNIPNILTFDSFKLFTANKNNVSCIKQCSRFLWQKDFNTLEEMIEYKNGNICIVTPQLHINDVRDIKSFNDIRLYSESPIKTFSVIDNTITYLFYFKEHLGVIFNITKSRHDRRVTKFSPLSKFSDVKNITVCFDIESYFDPEKESNQVNIPFICCASIIYNKVIGNIVDFEGRDCVAQMIEYVVDICGELNISSVELIAHNGGGYDFHYILSSMYNPAAIKNILIRNNSFISFNFAHDGVKFSVKDSYSFLLCSLANASKAFLNEETFKKTDFPHHDLKTADDLYKVYKEWSSVNTEINHVVEKEKLLITSEHIVNFTKNDKSKTLIEWSKDYCRNDVLVLSKVWLEFKNAVEDIFNCELVDQTMTLAGLSYKLFQANMPFDVELRHPNKEDYFNMREALIGGRCISVNGIYKDVLCLDVKSLYPASMAFYDQPYGSFKRVSSRPKDELGIYYVRVTPNRNNKSNFFPIRSHNKITYNNFEESTYIAWYTNVDIDIGLSEGHNIEYIPFDSYGNIGYSWSKKGKIFEKYIKDVLYKLKIKYEKQNNKVKRNVIKKIMNSLWGKFAQKWVNFEYFIKSEDDIDFESEEAYKIWDTDFMLIKKIKESTYSSKPIQNGVFTLSWARYHMKSIWDAGAKEGAECIYSDTDSIFVHKEHFKKNAKFMLNGLKVPIIGSEVGQLELECEFDKLLCAGKKQYMGFYTYFQDGKPCIKEKKRFKGIPSNYIIPELYAHLLSGADKEAKIQFLKCRREWGSVKGYIENKTVKAT",6.67 × 10^−7 s.p.b.
3,"I777K, V872I (protein) MDYKDKALNDLRNVYADFDSLPLDFRQILIKDRATLLQKEDVEKKILERQEDAKKYAEYLKQSEIPERISLPNIKRHKGVSISFEETSEDMVLEPRPFIFDGLNIRCFRRETIFSLKNKILNMVKESSSFKNVSRQSVSFMYFKIFNKGKVIASTKSVNIYEDKIDERLEDLCNNFDDVLKKIIDVTYGYESLFVSETYSYVIFYAKSIYFPQPRCVNNWGNNIPNILTFDSFKLFTANKNNVSCIKQCSRFLWQKDFNTLEEMIEYKNGNICIVTPQLHINDVRDIKSFNDIRLYSESPIKTFSVIDNTITYLFYFKEHLGVIFNITKSRHDRRVTKFSPLSKFSDVKNITVCFDIESYFDPEKESNQVNIPFICCASIIYNKVIGNIVDFEGRDCVAQMIEYVVDICGELNISSVELIAHNGGGYDFHYILSSMYNPAAIKNILIRNNSFISFNFAHDGVKFSVKDSYSFLLCSLANASKAFLNEETFKKTDFPHHDLKTADDLYKVYKEWSSVNTEINHVVEKEKLLITSEHIVNFTKNDKSKTLIEWSKDYCRNDVLVLSKVWLEFKNAVEDIFNCELVDQTMTLAGLSYKLFQANMPFDVELRHPNKEDYFNMREALIGGRCISVNGIYKDVLCLDVKSLYPASMAFYDQPYGSFKRVSSRPKDELGIYYVRVTPNRNNKSNFFPIRSHNKITYNNFEESTYIAWYTNVDIDIGLSEGHNIEYIPFDSYGNIGYSWSKKGKIFEKYIKDVLYKLKIKYEKQNNKVKRNVIKKIMNSLWGKFAQKWVNFEYFIKSEDDIDFESEEAYKIWDTDFMLIKKIKESTYSSKPIQNGVFTLSWARYHMKSIWDAGAKEGAECIYSDTDSIFIHKEHFKKNAKFMLNGLKVPIIGSEVGQLELECEFDKLLCAGKKQYMGFYTYFQDGKPCIKEKKRFKGIPSNYIIPELYAHLLSGADKEAKIQFLKFRREWGSVKGYIENKTVKAT",2.59 × 10^−8 s.p.b.
4,"I777K, F968T (protein) MDYKDKALNDLRNVYADFDSLPLDFRQILIKDRATLLQKEDVEKKILERQEDAKKYAEYLKQSEIPERISLPNIKRHKGVSISFEETSEDMVLEPRPFIFDGLNIRCFRRETIFSLKNKILNMVKESSSFKNVSRQSVSFMYFKIFNKGKVIASTKSVNIYEDKIDERLEDLCNNFDDVLKKIIDVTYGYESLFVSETYSYVIFYAKSIYFPQPRCVNNWGNNIPNILTFDSFKLFTANKNNVSCIKQCSRFLWQKDFNTLEEMIEYKNGNICIVTPQLHINDVRDIKSFNDIRLYSESPIKTFSVIDNTITYLFYFKEHLGVIFNITKSRHDRRVTKFSPLSKFSDVKNITVCFDIESYFDPEKESNQVNIPFICCASIIYNKVIGNIVDFEGRDCVAQMIEYVVDICGELNISSVELIAHNGGGYDFHYILSSMYNPAAIKNILIRNNSFISFNFAHDGVKFSVKDSYSFLLCSLANASKAFLNEETFKKTDFPHHDLKTADDLYKVYKEWSSVNTEINHVVEKEKLLITSEHIVNFTKNDKSKTLIEWSKDYCRNDVLVLSKVWLEFKNAVEDIFNCELVDQTMTLAGLSYKLFQANMPFDVELRHPNKEDYFNMREALIGGRCISVNGIYKDVLCLDVKSLYPASMAFYDQPYGSFKRVSSRPKDELGIYYVRVTPNRNNKSNFFPIRSHNKITYNNFEESTYIAWYTNVDIDIGLSEGHNIEYIPFDSYGNIGYSWSKKGKIFEKYIKDVLYKLKIKYEKQNNKVKRNVIKKIMNSLWGKFAQKWVNFEYFIKSEDDIDFESEEAYKIWDTDFMLIKKIKESTYSSKPIQNGVFTLSWARYHMKSIWDAGAKEGAECIYSDTDSIFVHKEHFKKNAKFMLNGLKVPIIGSEVGQLELECEFDKLLCAGKKQYMGFYTYFQDGKPCIKEKKRFKGIPSNYIIPELYAHLLSGADKEAKIQFLKTRREWGSVKGYIENKTVKAT",3.19 × 10^−7 s.p.b.
5,"I777K, L909F (protein) MDYKDKALNDLRNVYADFDSLPLDFRQILIKDRATLLQKEDVEKKILERQEDAKKYAEYLKQSEIPERISLPNIKRHKGVSISFEETSEDMVLEPRPFIFDGLNIRCFRRETIFSLKNKILNMVKESSSFKNVSRQSVSFMYFKIFNKGKVIASTKSVNIYEDKIDERLEDLCNNFDDVLKKIIDVTYGYESLFVSETYSYVIFYAKSIYFPQPRCVNNWGNNIPNILTFDSFKLFTANKNNVSCIKQCSRFLWQKDFNTLEEMIEYKNGNICIVTPQLHINDVRDIKSFNDIRLYSESPIKTFSVIDNTITYLFYFKEHLGVIFNITKSRHDRRVTKFSPLSKFSDVKNITVCFDIESYFDPEKESNQVNIPFICCASIIYNKVIGNIVDFEGRDCVAQMIEYVVDICGELNISSVELIAHNGGGYDFHYILSSMYNPAAIKNILIRNNSFISFNFAHDGVKFSVKDSYSFLLCSLANASKAFLNEETFKKTDFPHHDLKTADDLYKVYKEWSSVNTEINHVVEKEKLLITSEHIVNFTKNDKSKTLIEWSKDYCRNDVLVLSKVWLEFKNAVEDIFNCELVDQTMTLAGLSYKLFQANMPFDVELRHPNKEDYFNMREALIGGRCISVNGIYKDVLCLDVKSLYPASMAFYDQPYGSFKRVSSRPKDELGIYYVRVTPNRNNKSNFFPIRSHNKITYNNFEESTYIAWYTNVDIDIGLSEGHNIEYIPFDSYGNIGYSWSKKGKIFEKYIKDVLYKLKIKYEKQNNKVKRNVIKKIMNSLWGKFAQKWVNFEYFIKSEDDIDFESEEAYKIWDTDFMLIKKIKESTYSSKPIQNGVFTLSWARYHMKSIWDAGAKEGAECIYSDTDSIFVHKEHFKKNAKFMLNGLKVPIIGSEVGQLELECEFDKFLCAGKKQYMGFYTYFQDGKPCIKEKKRFKGIPSNYIIPELYAHLLSGADKEAKIQFLKFRREWGSVKGYIENKTVKAT",2.22 × 10^−7 s.p.b.
6,"I777K, K934W (protein) MDYKDKALNDLRNVYADFDSLPLDFRQILIKDRATLLQKEDVEKKILERQEDAKKYAEYLKQSEIPERISLPNIKRHKGVSISFEETSEDMVLEPRPFIFDGLNIRCFRRETIFSLKNKILNMVKESSSFKNVSRQSVSFMYFKIFNKGKVIASTKSVNIYEDKIDERLEDLCNNFDDVLKKIIDVTYGYESLFVSETYSYVIFYAKSIYFPQPRCVNNWGNNIPNILTFDSFKLFTANKNNVSCIKQCSRFLWQKDFNTLEEMIEYKNGNICIVTPQLHINDVRDIKSFNDIRLYSESPIKTFSVIDNTITYLFYFKEHLGVIFNITKSRHDRRVTKFSPLSKFSDVKNITVCFDIESYFDPEKESNQVNIPFICCASIIYNKVIGNIVDFEGRDCVAQMIEYVVDICGELNISSVELIAHNGGGYDFHYILSSMYNPAAIKNILIRNNSFISFNFAHDGVKFSVKDSYSFLLCSLANASKAFLNEETFKKTDFPHHDLKTADDLYKVYKEWSSVNTEINHVVEKEKLLITSEHIVNFTKNDKSKTLIEWSKDYCRNDVLVLSKVWLEFKNAVEDIFNCELVDQTMTLAGLSYKLFQANMPFDVELRHPNKEDYFNMREALIGGRCISVNGIYKDVLCLDVKSLYPASMAFYDQPYGSFKRVSSRPKDELGIYYVRVTPNRNNKSNFFPIRSHNKITYNNFEESTYIAWYTNVDIDIGLSEGHNIEYIPFDSYGNIGYSWSKKGKIFEKYIKDVLYKLKIKYEKQNNKVKRNVIKKIMNSLWGKFAQKWVNFEYFIKSEDDIDFESEEAYKIWDTDFMLIKKIKESTYSSKPIQNGVFTLSWARYHMKSIWDAGAKEGAECIYSDTDSIFVHKEHFKKNAKFMLNGLKVPIIGSEVGQLELECEFDKLLCAGKKQYMGFYTYFQDGKPCIKEWKRFKGIPSNYIIPELYAHLLSGADKEAKIQFLKFRREWGSVKGYIENKTVKAT",2.71 × 10^−7 s.p.b.
